Columns and labels:
[1] = target: cyclin D1 with the CDK6n-CDK4c chimera (UniProt P24385); experiment: recruitment to a CDK tethered at the inner nuclear membrane, with FRAP; as a4 but with 6 µM palbociclib overnight and throughout, or 6 µM palbociclib, ribociclib or abemaciclib added acutely about 4-5 min after photobleaching
[2] = target: CDK2-mTurquoise-Δ50 lamin A (UniProt P24941); experiment: recruitment to a CDK tethered at the inner nuclear membrane, with FRAP; live RPE-1 cells with mVenus-cyclin and CDK-mTurquoise-Δ50 lamin A, p21 and p27 depleted by siRNA co-knockdown; recovery of mVenus after photobleaching; 37 °C

Sequence of mVenus-cyclin E1 (P24864 whole entry): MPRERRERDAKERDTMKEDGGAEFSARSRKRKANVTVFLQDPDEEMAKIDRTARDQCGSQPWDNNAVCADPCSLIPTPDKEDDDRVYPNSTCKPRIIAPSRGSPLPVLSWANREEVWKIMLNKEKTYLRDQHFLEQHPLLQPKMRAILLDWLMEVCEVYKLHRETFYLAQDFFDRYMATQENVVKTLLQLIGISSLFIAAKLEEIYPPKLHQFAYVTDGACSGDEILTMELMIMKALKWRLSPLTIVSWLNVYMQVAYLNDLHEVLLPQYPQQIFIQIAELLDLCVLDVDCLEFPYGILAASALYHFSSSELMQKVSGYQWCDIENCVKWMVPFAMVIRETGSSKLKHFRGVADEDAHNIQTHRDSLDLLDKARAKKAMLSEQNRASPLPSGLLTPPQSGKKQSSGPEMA
Sequence of cyclin D1 with the CDK6n-CDK4c chimera (P24385 whole entry, looked up, stated change not applied): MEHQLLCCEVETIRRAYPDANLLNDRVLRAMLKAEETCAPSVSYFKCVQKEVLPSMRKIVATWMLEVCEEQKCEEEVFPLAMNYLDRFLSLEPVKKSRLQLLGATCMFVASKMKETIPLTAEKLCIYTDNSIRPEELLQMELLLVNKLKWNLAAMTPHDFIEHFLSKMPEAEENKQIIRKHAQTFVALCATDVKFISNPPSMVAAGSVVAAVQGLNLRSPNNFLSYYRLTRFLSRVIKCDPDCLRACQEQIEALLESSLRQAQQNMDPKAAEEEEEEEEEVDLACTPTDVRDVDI
Sequence of mRuby3-p21 (P38936 whole entry): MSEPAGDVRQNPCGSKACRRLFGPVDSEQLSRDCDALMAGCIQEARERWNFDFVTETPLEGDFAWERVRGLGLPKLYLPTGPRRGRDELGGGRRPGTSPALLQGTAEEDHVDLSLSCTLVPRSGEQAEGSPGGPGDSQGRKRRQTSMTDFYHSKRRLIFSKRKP

**Q.** For “mRuby3-p21 (from UniProt P38936 1-164) (natural protein)”, which fold decrease in fold change of the off-rate with palbociclib against DMSO [1] is on record?
**A.** 10 fold

**Q.** With “mVenus-cyclin E1 (from UniProt P24864 1-410) (natural protein; other documents disagree on this pair)” as the substance, how does the dissociation t-half [2] read?
**A.** 3 min

Source: PMC8184839
